# Source: article doi:10.1101/2021.01.30.428974
# Assays:
# [1] = target: Murine polyomavirus VP1 with the putative nuclear localisation signal deleted (Murine polyomavirus) (UniProt P03090); assay: co-sedimentation
# [2] = target: wild-type Murine polyomavirus VP1 (Murine polyomavirus) (UniProt P03090); assay: co-sedimentation
substance,measurement,setting,value
VP2C-GFP,stoichiometry N (GFP per ΔVP1 VLP),[1],72
same,stoichiometry N (GFP per wtVP1 VLP),[2],59
